Source: patent publication US20240076386A1 (Pfizer, published 2024)

How the values were obtained:
[1] = biological target: T1, human P-selectin expressed on CHO cells (human, UniProt P16109 42-830); experiment: flow cytometry, CHO human P-selectin cells
T1 construct: whole, on cells; also called CHO-human P-selectin cells; CHO-P-selectin cells
T1 sequence (looked up): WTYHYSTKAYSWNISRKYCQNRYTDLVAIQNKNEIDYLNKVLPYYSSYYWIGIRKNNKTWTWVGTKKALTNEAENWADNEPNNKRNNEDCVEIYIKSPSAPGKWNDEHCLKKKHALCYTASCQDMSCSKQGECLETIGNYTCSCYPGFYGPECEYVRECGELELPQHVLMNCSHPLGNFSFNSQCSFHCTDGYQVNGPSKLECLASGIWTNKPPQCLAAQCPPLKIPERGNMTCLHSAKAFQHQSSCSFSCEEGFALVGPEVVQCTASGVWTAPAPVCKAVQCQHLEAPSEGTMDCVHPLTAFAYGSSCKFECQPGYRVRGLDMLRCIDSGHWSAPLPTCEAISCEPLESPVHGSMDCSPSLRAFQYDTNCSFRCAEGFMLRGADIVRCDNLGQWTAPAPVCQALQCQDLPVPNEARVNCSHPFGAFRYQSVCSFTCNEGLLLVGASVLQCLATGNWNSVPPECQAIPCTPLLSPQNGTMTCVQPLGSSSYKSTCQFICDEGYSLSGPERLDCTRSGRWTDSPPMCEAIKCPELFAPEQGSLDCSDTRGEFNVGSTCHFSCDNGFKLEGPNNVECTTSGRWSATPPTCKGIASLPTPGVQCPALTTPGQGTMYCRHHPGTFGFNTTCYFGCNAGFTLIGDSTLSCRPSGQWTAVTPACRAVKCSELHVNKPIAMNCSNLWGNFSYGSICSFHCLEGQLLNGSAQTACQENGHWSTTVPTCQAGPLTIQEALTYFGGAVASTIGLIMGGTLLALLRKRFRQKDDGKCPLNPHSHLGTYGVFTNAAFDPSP

[2] = biological target: T2, human E-selectin, cell-surface expressed (human, UniProt P16581 22-610); experiment: competition ELISA on CHO cells vs sialyl Lewis ligand, further assays
T2 construct: also called CHO-human E-selectin cells; human CHO-E
T2 sequence: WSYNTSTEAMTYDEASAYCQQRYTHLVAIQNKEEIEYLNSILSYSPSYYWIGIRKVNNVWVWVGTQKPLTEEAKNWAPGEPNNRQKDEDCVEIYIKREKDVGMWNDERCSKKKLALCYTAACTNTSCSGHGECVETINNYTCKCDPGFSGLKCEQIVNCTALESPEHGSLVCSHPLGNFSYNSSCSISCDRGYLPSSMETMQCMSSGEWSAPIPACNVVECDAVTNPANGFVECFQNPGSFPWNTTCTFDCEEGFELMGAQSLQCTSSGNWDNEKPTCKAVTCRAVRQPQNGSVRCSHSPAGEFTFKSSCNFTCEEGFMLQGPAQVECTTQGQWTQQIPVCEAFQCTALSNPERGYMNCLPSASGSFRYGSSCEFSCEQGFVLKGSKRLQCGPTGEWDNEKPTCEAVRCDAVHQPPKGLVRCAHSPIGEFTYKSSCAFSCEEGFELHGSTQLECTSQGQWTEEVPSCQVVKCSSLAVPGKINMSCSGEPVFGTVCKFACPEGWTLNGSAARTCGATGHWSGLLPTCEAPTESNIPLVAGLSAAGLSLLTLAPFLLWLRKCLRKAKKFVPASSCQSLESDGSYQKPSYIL
Experimental: CHO cells expressing E-selectin were seeded at 12,500 cells per well into a 96 well tissue culture plate and incubated at 37° C., 5% CO₂ for 48 hours to form a confluent monolayer. Plates were subsequently washed twice with 200 μL of calcium magnesium free PBS. Anti-E-selectin antibodies or an IgG1 isotype control (IgG control) were added to the assay in the presence of a small synthetic conjugate of biotinylated, sialyl Lewis A polyacrylamide (Carbosynth LLC, OS45446) or sialyl Lewis X polyacrylamide (Glycotech, 01-045) with streptavidin/horseradish peroxidase (100 μL total) and incubated at 37° C., 5% CO₂ for 2 hours. Plates were then washed twice with 200 μL of calcium and magnesium free PBS. Following the incubation, the cells were washed twice with 200 μL of wash buffer containing 2 mM of calcium chloride (50 mM TRIS [trisaminomethane], 150 mM sodium chloride; 0.05% polysorbate 20, pH 7.4; 2 mM calcium chloride). Signal was developed by adding 100 μL of 1-Step Ultra TMB substrate (Thermo Scientific, 34028) and incubating for 30 minutes at room temperature. Reactions were stopped using 2 M of sulfuric acid and absorbance was read at 450 nm (Spectramax M5e). Data were analyzed and graphed using GraphPad Prism software (Version 8.0.2).

B1: optimized anti-E-selectin antibody 1444 (antibody, human IgG1, kappa, V domains shown)
VH: EVQLVESGGGLVQPGGSLRLSCAASGYAIRSAYMHWVRQAPGKGLEWVARIDPANGNTIYVDSVTGRFTISADNAKNSAYLQMNSLRAEDTAVYYCAMDLYSTSEYWGQGTLVTVSS
VL: DIQMTQSPSSLSASVGDRVTITCKTSQNIERYLNWYQQKPGKAPKLLIYAASSLQSGVPSRFSGSGSGTDFTLTISSLQPEDFATYFCLQDNAWPLTFGQGTKVEIKR
notes: effector-null human IgG1, kappa
- binding result [1]: no binding
- IC50 [2]: 2.33 nM
